These results are taken from patent publication US20250368742A1 (D2M BIOTHERAPEUTICS, published 2025).

The labels stand for the following.
B1: D2M001-003 (antibody, V domains shown)
VH: QVQLVQSGAEVKKPGSSVKVSCKASGYAFHDYLIEWVRQAPGQGLEWIGGINPGSGSTNYAQKFQGRATLTADKSTSTAYMELSSLRSEDTAVYYCARLDGNYVGYWGQGTLVTVSS
VL: DIQMTQSPSSLSASVGDRVTITCRASGNIHNYLAWYQQKPGKSPKLLVYHAKTLQSGVPSRFSGSGSGTDYTLTISSLQPEDVATYYCQHFWSTPRTFGGGTKVEIK
notes: only the CDRs are tied to the name in the text; copies: 2 + 2
B2: D2M001-004 (antibody, V domains shown)
VH: B1 VH with H30V, I51V, D100E
VL: B1 VL
notes: as for B1
B3: CM33322 (antibody, human IgG1, kappa)
heavy: not shown
light: DIVMTQTPLSSPVTLGQPASISCRSSQSLVHRDGNTYLSWFLQRPGQAPRLLIYRISNRFSGVPDRFSGSGAGTDFTLKISRVEAEDVGVYYCMQATQIPNTFGQGTKLEIKRTVAAPSVFIFPPSDEQLKSGTASVVCLLNNFYPREAKVQWKVDNALQSGNSQESVTEQDSKDSTYSLSSTLTLSKADYEKHKVYACEVTHQGLSSPVTKSFNRGEC
B4: MICB005-ECD-HISAvi (ligand)
chain: EPHSLRYNLMVLSQDGSVQSGFLAEGHLDGQPFLRYDRQKRRAKPQGQWAEDVLGAKTWDTETEDLTENGQDLRRTLTHIKDQKGGLHSLQEIRVCEIHEDSSTRGSRHFYYDGELFLSQNLETQESTVPQSSRAQTLAMNVTNFWKEDAMKTKTHYRAMQADCLQKLQRYLKSGVAIRRTVPPMVNVTCSEVSEGNITVTCRASSFYPRNITLTWRQDGVSLSHNTQQWGDVLPDGNGTYQTWVATRIRQGEEQRFTCYMEHSGNHGTHPVPSGKALVLQSQRTDHHHHHHGLNDIFEAQKIEWHE
notes: Two sources under one name in the two kinetic assays; also called MICB005 polypeptide
B5: 13A9 (antibody, human IgG1, kappa, V domains shown)
VH: QVQLQQSGAELVRPGTSVKVSCKASGYAFTNYLIEWVKQRPGQGLEWIGAINPGSGATNYNEKFKDKARLTADKSSNTAYLQFSSLTSDDSAVYFCARFLGNYFDNWGQGATLTVSS
VL: DIQMTQSPASLSASVGETVTITCRASGNIHSYLAWYQQKQGKSPQLLVYYAETLADGVPSRFSGRGSGTQYSLKINSLQPEDFGSYFCQQFWTTPYTFGGGTKVEIKR
B6: h36B3GS (antibody, V domains shown)
VH: QVQLVQSGAEVKKPGASVKVSCKASGYAFTKYNFYWVRQAPGQGLEWIGYIDPYFGGTVYNQKFKGKATLTVDKSTSTAYMELRSLRSDDTAVYYCATTDSYSLFTYWGQGTLVTVSS
VL: DIQMTQSPSSLSASVGDRVTITCRASQDISNYLNWYQQTPGKAVKLLIYYTSRLHSGVPSRFSGSGSGTDYTLTISSLQPEDIATYFCLQGNTLPFTFGQGTKLEIK
notes: humanized #36 variant; the text writes h36B3(GS); copies: 2 + 2
B7: MICA008-ECD-HISAvi (ligand)
chain: EPHSLRYNLTVLSWDGSVQSGFLAEVHLDGQPFLRYDRQKCRAKPQGQWAEDVLGNKTWDRETRDLTGNGKDLRMTLAHIKDQKEGLHSLQEIRVCEIHEDNSTRSSQHFYYDGELFLSQNLETEEWTVPQSSRAQTLAMNVRNFLKEDAMKTKTHYHAMHADCLQELRRYLESGVVLRRTVPPMVNVTRSEASEGNITVTCRASSFYPRNIILTWRQDGVSLSHDTQQWGDVLPDGNGTYQTWVATRICRGEEQRFTCYMEHSGNHSTHPVPSGKVLVLQSHWQHHHHHHGLNDIFEAQKIEWHE
notes: Two sources under one name in the two kinetic assays; also called MICA008 polypeptide
B8: MICA002-ECD-HISAvi (ligand)
chain: B7 chain with W14G, Y36C, V129M, E173K, S206G, R210W, I213T, T215S, R251Q
notes: also called MICA002 polypeptide

Numbering of substitutions follows the chain as printed. Read-outs that look alike come from different tables or passages of the source.

The target of assay [1] is T1, human MICA002 on cells (human).
T1 chain: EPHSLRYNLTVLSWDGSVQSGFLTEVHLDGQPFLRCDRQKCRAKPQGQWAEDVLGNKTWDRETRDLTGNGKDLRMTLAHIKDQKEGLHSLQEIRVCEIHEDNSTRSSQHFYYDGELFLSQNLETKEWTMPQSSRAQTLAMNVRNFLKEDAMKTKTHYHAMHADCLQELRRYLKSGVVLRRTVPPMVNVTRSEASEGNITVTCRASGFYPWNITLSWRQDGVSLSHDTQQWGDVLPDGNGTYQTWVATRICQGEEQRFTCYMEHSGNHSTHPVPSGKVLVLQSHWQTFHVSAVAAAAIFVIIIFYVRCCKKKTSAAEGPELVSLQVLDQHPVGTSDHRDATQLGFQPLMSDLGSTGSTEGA
As to the kind of experiment: flow cytometry, CHO-MICA002 cells.

The target in assay [2] is B4. Kind of assay: BLI (GatorPrime); antibody on anti-hIgG Fc probe, monomeric antigen in solution.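 Also: binding kinetics of anti-MICA/B antibodies measured by biolayer interferometry, with dissociation followed for about 10 min.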
Method: (§1) The binding kinetics of the antibodies were also measured using the GatorPrime BLI (Biolayer Interferometry) system (Gator Bio, USA). Specifically, the anti-MICA/B antibodies were loaded with HFC (Anti-hIgG Fc, Gator Bio, Cat #: 160003). […] The dissociation kinetics were monitored for approximately 10 minutes. The probes were regenerated between binding cycles with Regeneration Buffer (Gator Bio, Cat #: 120012). Binding kinetics were analyzed using software supplied by the manufacturer.
Assay [3] concerns the target B8. The description is as above.
Method: as §1
For assay [4], the target named is T2, MICA004-ECD-HISAvi (human).
T2 construct: also called MICA004 polypeptide
T2 chain: B7 chain with L122V, G175S, T181R, I213T, R251Q
The assay is described as above.
Method: as §1

Assay [5] addresses B7. The assay is described as above.
Method: as §1
In assay [6] the target is T3, NKG2D-His (UniProt P26718 78-216, limits assumed).
T3 sequence (looked up): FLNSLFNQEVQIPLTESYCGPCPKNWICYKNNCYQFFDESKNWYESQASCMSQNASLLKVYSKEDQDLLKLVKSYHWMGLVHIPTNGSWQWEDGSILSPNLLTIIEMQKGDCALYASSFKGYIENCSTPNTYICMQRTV
Kind of assay: ELISA: NKG2D-His coated, MICA/B-ECD titrated, detection 1D5 + anti-hFc-HRP. (In general: In an ELISA, binding on a coated surface is turned into a signal by an enzyme label.)

Assay [7] deals with T4, MICA009Avi (human).
T4 construct: extracellular domain
Kind of assay: BLI (GatorPrime); antibody on anti-hIgG Fc probe, monomeric antigen in solution.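 Also: binding kinetics of anti-MICA/B antibodies measured by biolayer interferometry, with dissociation followed for about 10 min.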
Method: as §1

Assay [8] addresses T5, Cynomolgus monkey MICA (cynoMICA) (Cynomolgus monkey (Macaca fascicularis)).
T5 construct: also called cyno monkey MICA; cyno MIC protein
The description is as above.
Method: as §1

The target in assay [9] is B4. Kind of assay: SPR (Carterra); antibody captured by anti-human Fc, monomeric ECD antigen injected.
Method: (§2) The dissociation kinetics were monitored for approximately 10 minutes. The chip surface was regenerated between binding cycles with 10 mM glycine HCl, pH 1.7. Binding kinetics were analyzed using software supplied by the manufacturer.
The target of assay [10] is B8. The description is as above.
Method: as §2
The target of assay [11] is T2, MICA004-ECD-HISAvi. Described as above.
Method: as §2
For assay [12], the target named is B7. Described as above.
Method: as §2
For assay [13], the target named is T6, human MICB005 on cells (human).
T6 construct: whole, on cells; also called CHO-MICB005; C1R-MICB005
As to the kind of experiment: flow cytometry, CHO-MICB005 cells.
Method: (§3) IgG1 is an isotype control (IgG). The antibody binding signals of APC (gMFI) to MICA/B were measured by flow cytometry.
(§4) After an incubation time of 30 minutes, the plate was centrifuged and cells were washed with PBS three times. […] After mixing for 30 minutes at room temperature, cells were washed with PBS twice. Fluorescent signal was detected and quantified by flow cytometry (Attune™ CytPix™, ThermoFisher) within the population of live cells (viability dye PI negative).

In assay [14] the target is T7, human MICA008 on cells (human).
T7 construct: whole, on cells; also called CHO-MICA008; C1R-MICA008
T7 sequence (Q29983 whole entry): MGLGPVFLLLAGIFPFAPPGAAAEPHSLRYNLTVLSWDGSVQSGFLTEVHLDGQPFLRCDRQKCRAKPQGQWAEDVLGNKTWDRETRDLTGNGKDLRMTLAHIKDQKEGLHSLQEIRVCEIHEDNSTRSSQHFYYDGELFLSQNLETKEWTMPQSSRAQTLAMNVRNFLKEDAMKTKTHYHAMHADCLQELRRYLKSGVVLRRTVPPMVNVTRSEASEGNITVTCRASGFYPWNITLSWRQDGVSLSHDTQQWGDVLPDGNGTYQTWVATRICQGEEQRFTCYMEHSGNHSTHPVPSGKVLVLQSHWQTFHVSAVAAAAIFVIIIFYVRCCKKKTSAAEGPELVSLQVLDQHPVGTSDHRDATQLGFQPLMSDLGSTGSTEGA
Kind of assay: flow cytometry, HeLa cells (MICA008). For orientation: A flow cytometer gives signals particle by particle.
Method: as §3, §4

Assay [15] concerns the target T1, human MICA002 on cells. As to the kind of experiment: flow cytometry, CHO-MICA002 cells.
Method: CHO-MICA002 cells were incubated with titrated anti-MICA/B antibodies and then APC-labeled anti-human Fc antibody. […] The antibody binding signals of APC (gMFI) to MICA/B were measured by flow cytometry.
as §4
Assay [16] addresses T7, human MICA008 on cells. Kind of assay: flow cytometry, CHO-MICA008 cells.
Method: as §3, §4
Assay [17] addresses T8, human MICA004 on cells (human).
T8 construct: whole, on cells; also called CHO-MICA004; C1R-MICA004
Kind of assay: flow cytometry, CHO-MICA004 cells.
Method: as §3, §4

In assay [18] the target is B4. Kind of assay: SPR (Carterra); antibody captured by anti-human Fc, monomeric ECD antigen injected. The source holds these as a separate data set.
Method: as §2
Assay [19] has as its target B8. Described as above.
Method: as §2
Assay [20] addresses T2, MICA004-ECD-HISAvi. The assay is described as above.
Method: as §2
The target in assay [21] is B7. The description is as above.
Method: as §2
For assay [22], the target named is T1, human MICA002 on cells. As to the kind of experiment: flow cytometry, CHO-MICA002 cells.

For orientation: EC50 means the concentration giving half of the maximal effect. In general, EC50 (read off the curve) refers to the concentration needed to bring the measured effect to its halfway point. For orientation: Kd means a measure of binding affinity in units of concentration.

T8 sequence (Q29983 whole entry): as above

Molecule B1 returned an EC50 in assay [1] of 3.59 µg/mL.

For B2, the EC50 in [1] worked out at 4.2 µg/mL.

Regarding B3, the binding result in [2], in assay [3], in assay [4] and in [5] was “no binding” each time.

Turning to B4, in [6], the “EC50 (read off the curve)” value was roughly 0.02 µg/mL.

Regarding B5, the Kd was determined as 0.425 nM in assay [2]; 0.0956 nM in assay [3]; 0.262 nM in assay [7]; 1.39 nM in assay [4]; 0.504 nM in [5]; 13.9 nM in assay [8]. In addition, the dissociation constant Kd was 0.486 nM in assay [9]; 0.313 nM in [10]; 12.8 nM in [11]; 1 nM in [12]; 4.38 nM in [18]; 1.67 nM in assay [19]. For the same molecule, the results for the Kd in assay [20] and in assay [21] were 5.02 nM and 23.2 nM, respectively. The EC50 came to 1.71 µg/mL in assay [13]; 4.09 µg/mL in [14]; 3.56 µg/mL in [15]; 2.08 µg/mL in assay [16]; 7.25 µg/mL in assay [17].

Turning to B6, the EC50 in assay [22] was 0.6 µg/mL.

Regarding B7, the concentration for a half-maximal effect (EC50 (read off the curve)) in assay [6] is roughly 0.1 µg/mL.

Take B8: the concentration for a half-maximal effect (EC50 (read off the curve)) in assay [6] was roughly 0.2 µg/mL.
